{"source": "paper PMC10484726", "about": "“Archaeal Hel308 suppresses recombination through a catalytic switch that controls DNA annealing”", "molecular_target": "T1, Mth-Hel308 wild type (Methanothermobacter thermautotrophicus, UniProt O26901 1-690)", "T1 sequence": "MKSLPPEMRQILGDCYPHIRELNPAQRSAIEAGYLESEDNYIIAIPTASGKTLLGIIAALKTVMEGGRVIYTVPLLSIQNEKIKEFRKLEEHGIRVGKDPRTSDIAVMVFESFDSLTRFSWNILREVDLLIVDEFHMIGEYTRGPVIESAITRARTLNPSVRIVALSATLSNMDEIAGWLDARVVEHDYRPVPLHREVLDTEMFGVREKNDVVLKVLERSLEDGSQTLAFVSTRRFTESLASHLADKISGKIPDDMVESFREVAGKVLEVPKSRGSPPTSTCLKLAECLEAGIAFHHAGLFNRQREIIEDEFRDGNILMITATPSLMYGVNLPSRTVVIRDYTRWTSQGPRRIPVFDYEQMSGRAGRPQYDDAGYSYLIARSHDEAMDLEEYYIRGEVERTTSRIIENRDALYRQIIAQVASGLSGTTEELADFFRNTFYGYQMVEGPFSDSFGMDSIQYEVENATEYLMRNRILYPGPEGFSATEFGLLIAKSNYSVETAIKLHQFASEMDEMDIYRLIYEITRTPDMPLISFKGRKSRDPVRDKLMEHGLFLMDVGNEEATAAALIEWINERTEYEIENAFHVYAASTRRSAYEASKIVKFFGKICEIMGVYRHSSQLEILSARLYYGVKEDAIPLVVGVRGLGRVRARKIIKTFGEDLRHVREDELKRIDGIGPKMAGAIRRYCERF", "assay": "EMSA; 5 mM EDTA; 25 nM DNA; EMSA: 20 mM Tris-HCl pH 7.5, 100 ug/ml BSA, 7% glycerol, 25 mM DTT, 5 mM EDTA, 25 nM Cy5-DNA; 5% TBE gel; no added salt stated; 37 C 10 min stated for duplex DNA reactions", "conditions": "protein: recombinant; tags: N-terminal His6; label: Cy5 (end label); fork", "data": [{"binder": "forked DNA substrate (dsDNA) DNA 1: GTCGGATCCTCTAGACAGCTCCATGATCACTGGCACTGGTAGAATTCGGC DNA 2: CAACGTCATAGACGATTACATTGCTACATGGAGCTGTCTAGAGGATCCGA", "values": [{"measurement": "Kd", "result": 68.2, "unit": "nM"}]}]}
